Test results taken from patent US20070254831A1 (published 2007).
Each block holds one binder with its values, some of them ahead of it. Bridge positions count the residues as written; N and C are the ends. Ends that are not written are not given here.

Columns and labels:
[1] = biological target: T1, soluble human FcRn (human, UniProt P55899 24-297; P61769 21-119, biotinylated (Sulfo-NHS-LC-Biotin) in the ELISA; amine-coupled to CM5 chip in SPR); test: ELISA, competitor human IgG
T1 construct: also called shFcRn; biotinylated shFcRn
Description: (§1) The wells were coated with 100 μl/well of 1 μg/ml biotinylated-shFcRn in Buffer A. The plate was sealed and incubated at 37° C. for 2 hours. Afterwards, the plate washed with 200 μl/well of Buffer B (Buffer B: 100 mM MES pH 6, 150 mM NaCl, 0.5% BSA IgG-free (Jackson ImmunoResearch, West Grove, Pa.), 0.05% Tween-20). […] To allow for mixing, the plate was rocked for 2 minutes, sealed and incubated at 37° C. for 2 hours. […] The plate was covered, incubated for 30 minutes at room temperature and washed 4 times with 200 μl/well of ice-cold buffer B. SureBlue TMB substrate solution (100 μl/well, KPL, Gaithersburg, Md.) was added and the plate was allowed to incubate at room temperature until color developed, which took 5 to 10 minutes. Once color developed, 100 μl/well of TMB stop solution (KPL, Gaithersburg, Md.) was added and the absorbance was measured at 450 nm. The data was plotted as absorbance vs. peptide concentration to derive the inhibitory concentration 50% (IC₅₀) values.

[2] = biological target: T1, soluble human FcRn; test: SPR, pH 6
Description: (§2) The following steps were performed to cross-link soluble human or cynomolgus FcRn to the dextran surface of a CM5 sensor chip (Biacore AB, Uppsala, Sweden) by an amine coupling reaction involving 1-ethyl-(3-dimethylaminopropyl)-carbodiimide hydrochloride (EDC) (Biacore AB, Uppsala, Sweden) and N-hydroxysuccinimide (NHS) (Biacore AB, Uppsala, Sweden) as recommended by Biacore (BIAapplications Handbook, version AB, section 4.2, Biacore AB, Uppsala, Sweden). […] Residual sites on the FcRn flow cell were blocked with 1 M ethanolamine hydrochloride pH 8.5 (Biacore AB, Uppsala, Sweden). A control flow cell was blocked with ethanolamine for reference subtraction. For analysis of the monomeric peptides, FcRn was coated to a final density of 4000-5000 response units (RU). For analysis of the peptide dimers, FcRn was coated to a density of 2000-2500 RU. All SPR measurements were performed using a BIACORE 3000 Instrument (Biacore AB Uppsala, Sweden). For measurements done at either pH 6 or pH 7.4, experiments were performed in 50 mM phosphate, 100 mM sodium chloride, 0.01% surfactant P20 (Biacore AB, Uppsala, Sweden).
(§3) Ten, 2-fold dilutions of the peptide were injected over the FcRn-CM5 chip at a rate of 20 μl/min for 2 min. The peptide was dissociated from the chip for 2.5 minutes with buffer. Any remaining peptide was removed from the chip with a 30 second injection of HBS-P buffer (Biacore AB, Uppsala, Sweden) at a rate of 30 μl/min. Sensorgrams were generated and analyzed using BiaEval software version 3.1 (Biacore AB, Uppsala, Sweden). The equilibrium RU observed for each injection was plotted against concentration. The equilibrium KD values were derived by analysis of the plots using the steady state affinity model included in the BiaEval software.

[3] = biological target: T1, soluble human FcRn; test: SPR, pH 6; remark: listed apart in the source
Description: as §2
(§4) Ten, 2-fold dilutions of the peptide were injected over the FcRn-CM5 chip at a rate of 20 μl/min for 2 min. The peptide was dissociated from the chip for 2.5 minutes with buffer. […] Sensorgrams were generated and analyzed using BiaEval software version 3.1 (Biacore AB, Uppsala, Sweden). […]

[4] = biological target: T1, soluble human FcRn; test: ELISA, competitor human IgG; remark: listed apart in the source
Description: as §1

[5] = biological target: T1, soluble human FcRn; test: ELISA, competitor human IgG; remark: listed apart in the source
Description: as §1

[6] = biological target: T1, soluble human FcRn; test: SPR, pH 6; remark: listed apart in the source
Description: as §2, §4

[7] = biological target: T1, soluble human FcRn; test: SPR, pH 6; remark: listed apart in the source
Description: as §2, §3

[8] = biological target: T1, soluble human FcRn; test: SPR, pH 6; remark: listed apart in the source
Description: as §2, §3

[9] = biological target: T1, soluble human FcRn; test: SPR, pH 6; remark: listed apart in the source
Description: as §2, §3

[10] = biological target: T1, soluble human FcRn; test: ELISA, competitor human IgG; remark: listed apart in the source
Description: as §1

[11] = biological target: T1, soluble human FcRn; test: SPR, pH 6; remark: listed apart in the source
Description: as §2, §3

[12] = biological target: T1, soluble human FcRn; test: ELISA, competitor human IgG; remark: listed apart in the source
Description: as §1

[13] = biological target: T1, soluble human FcRn; test: ELISA, competitor human IgG; remark: listed apart in the source
Description: as §1

[14] = biological target: T1, soluble human FcRn; test: SPR, pH 6; remark: listed apart in the source
Description: as §2, §3

[15] = biological target: T1, soluble human FcRn; test: ELISA, competitor human IgG; remark: listed apart in the source
Description: as §1

[16] = biological target: T1, soluble human FcRn; test: ELISA, competitor human IgG; remark: listed apart in the source
Description: as §1

[17] = biological target: T1, soluble human FcRn; test: SPR, pH 6; remark: listed apart in the source
Description: as §2, §3

[18] = biological target: T1, soluble human FcRn; test: SPR, pH 6; remark: listed apart in the source
Description: as §2, §4

[19] = biological target: T1, soluble human FcRn; test: ELISA, competitor human IgG; remark: listed apart in the source
Description: as §1

[20] = biological target: T1, soluble human FcRn; test: ELISA, competitor human IgG; remark: listed apart in the source
Description: as §1

[21] = biological target: T1, soluble human FcRn; test: ELISA, competitor human IgG; remark: listed apart in the source
Description: as §1

[22] = biological target: T1, soluble human FcRn; test: SPR, pH 6; remark: listed apart in the source
[23] = biological target: T1, soluble human FcRn; test: assay not named for Table 26, taken as the IgG competition ELISA
[24] = biological target: T1, soluble human FcRn; test: SPR, pH 7.4
Description: as §2, §3

[25] = biological target: T1, soluble human FcRn; test: SPR, pH 6; remark: listed apart in the source
Description: as §2, §3

[26] = biological target: T1, soluble human FcRn; test: SPR, pH 7.4; remark: listed apart in the source
Description: as §2, §4

[27] = biological target: T1, soluble human FcRn; test: SPR, pH 7.4; remark: listed apart in the source
Description: as §2, §4

[28] = biological target: T1, soluble human FcRn; test: SPR, pH 6; remark: listed apart in the source
Description: as §2, §4

[29] = biological target: T1, soluble human FcRn; test: SPR, pH 7.4; remark: listed apart in the source
Description: as §2, §3

[30] = biological target: T1, soluble human FcRn; test: SPR, pH 6; remark: listed apart in the source
Description: as §2, §3

[31] = biological target: T1, soluble human FcRn; test: SPR, pH 7.4; remark: listed apart in the source
Description: as §2, §4

[32] = biological target: T1, soluble human FcRn; test: SPR, pH 6; remark: listed apart in the source
Description: as §2, §3

[33] = biological target: T1, soluble human FcRn; test: SPR, pH 7.4; remark: listed apart in the source
Description: as §2, §3

[34] = biological target: T1, soluble human FcRn; test: SPR, pH 7.4; remark: listed apart in the source
Description: as §2, §3

[35] = biological target: T1, soluble human FcRn; test: SPR, pH 7.4; remark: listed apart in the source
Description: as §2, §3

- IC50 [1]: 2000 nM
- Kd [2]: 250 nM
- Kd [3]: 250 nM
- IC50 [4]: 2000 nM
- IC50 [5]: 2000 nM
- Kd [6]: 250 nM
- Kd [7]: 250 nM
- Kd [8]: 250 nM
- Kd [9]: 250 nM
- IC50 [10]: 2000 nM
- Kd [11]: 250 nM
- IC50 [12]: 2000 nM
- IC50 [13]: 2000 nM
- Kd [14]: 250 nM
- IC50 [15]: 2000 nM
- IC50 [16]: 2000 nM
- Kd [17]: 250 nM
- Kd [18]: 250 nM
- IC50 [19]: 2000 nM
- IC50 [20]: 2000 nM
- IC50 [21]: 2000 nM
- Kd [22]: 250 nM
Binder: QRFXTGHFGGLYPCNGP (Pen (L-penicillamine) at 4; disulfide; C-terminal amide) [Peptide No. 32]

- IC50 [23]: 18 nM
B1: Peptide No. 289 (peptide)
peptide: RFXTGHFGGLYPC
modifications: not fully specified; Pen at 3; Sar at 9; NMeLeu at 10; intrachain disulfide; C-terminal amide; N-termini joined by an Asp linker that carries PEG 30 kDa
notes: structure only as drawing CHEM-US-00138; also called Pegylated Analog of Peptide No. 285

- Kd [2]: 5100 nM
- Kd [24]: 30000 nM
- Kd [25]: 5100 nM
- Kd [7]: 5100 nM
- Kd [26]: 30000 nM
- Kd [9]: 5100 nM
- Kd [27]: 30000 nM
- Kd [28]: 5100 nM
- Kd [29]: 30000 nM
- Kd [30]: 5100 nM
- Kd [31]: 30000 nM
- Kd [32]: 5100 nM
- Kd [33]: 30000 nM
- Kd [34]: 30000 nM
- Kd [35]: 30000 nM
- Kd [22]: 5100 nM
Binder: QRFCTGHFGGLYPCNGP-NH2 (disulfide 4-14 (inferred)) [SEQ ID NO:1]
